The test has as its target human CD33 on the cell surface of human monocytes / myeloid cells (human) (UniProt P20138). Briefly: cell-based or functional assay.

Chain of human CD33 on the cell surface of human monocytes / myeloid cells (human) (P20138 18-364 limits assumed): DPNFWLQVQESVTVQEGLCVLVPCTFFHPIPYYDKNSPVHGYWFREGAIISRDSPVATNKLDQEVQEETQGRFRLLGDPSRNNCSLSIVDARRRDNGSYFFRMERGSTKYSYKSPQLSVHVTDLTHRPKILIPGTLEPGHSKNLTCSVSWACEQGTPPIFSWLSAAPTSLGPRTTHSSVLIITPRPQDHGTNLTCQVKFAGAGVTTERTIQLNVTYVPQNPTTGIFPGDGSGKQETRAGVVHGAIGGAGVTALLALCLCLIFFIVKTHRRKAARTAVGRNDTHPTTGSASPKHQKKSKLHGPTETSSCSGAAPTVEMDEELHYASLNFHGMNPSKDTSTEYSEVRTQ

In turn, Gemtuzumab (hIgG4PAA) (antibody) yielded a % Internalization of 50.5%.

(Values after patent US20240173425A1, “HUMAN CD33 ANTIBODIES AND GLUCOCORTICOID CONJUGATES” (Eli Lilly and Company, priority 2022, published 2024).)
